Source: patent US20140205611A1

Tests used:
Test in all cases: cell-based or functional assay
[1] = target: recombinant hGM-CSF expressed in E. coli (Fa. Biomol #2514) (human) (UniProt P04141)
[2] = target: recombinant hGM-CSF derived from yeast (Leukine, Berlex) (human) (UniProt P04141)
[3] = target: recombinant hGM-CSF from E. coli (Peprotech) (human) (UniProt P04141)
Sequence of recombinant hGM-CSF from E. coli (Peprotech) (human) (P04141 18-144 limits assumed): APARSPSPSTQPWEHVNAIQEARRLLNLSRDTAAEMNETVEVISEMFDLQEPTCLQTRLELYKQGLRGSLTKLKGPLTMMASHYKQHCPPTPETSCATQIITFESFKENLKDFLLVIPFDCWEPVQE

Sequence of recombinant hGM-CSF derived from yeast (Leukine, Berlex) (human) (P04141 other isoform, or with tags, fused parts or gaps limits assumed, form in doubt): as the sequence (P04141 18-144 limits assumed) above, with R23L counted along it
Sequence of recombinant hGM-CSF expressed in E. coli (Fa. Biomol #2514) (human) (P04141 18-144 limits assumed): as the sequence (P04141 18-144 limits assumed) above

Row | Substance | IC50 in TF-1 assay, hGM-CSF (E. coli) at 1.0 ng/ml final concentration [1] [nM] | TF-1 cell proliferation with 0.5 ng/mL rhGM-CSF (WST-1 assay) [2] [µg/mL] | TF-1 cell proliferation with 0.5 ng/mL rhGM-CSF (WST-1 assay) [3] [µg/mL]
1 | rat-anti-human-GM-CSF IgG2a BVD2-21C11 (Fa. BD, #554503) (antibody) | 8.26 |  | 
2 | human anti-human cytomegalovirus monoclonal antibody (hIgG) |  | < 2 | < 2
